# Where a chain is given by its changes, count along the chain named. Names may count otherwise.
# B1: N388M-K394R-L432F-L434W-S436N (protein)
# chain: MFLKSLREQINLLKRQGDLRIINRPVDSYLEAAAIIRRSTETKAPVPLMTNIKGYPGCSIVGGLAALSSNPEYPLSRVAMSLGLSTTASAQSIVQYLIDGLKKTPYLPVEIDSNSAPCKQNILRGEDASLAHFPIPQVHQHDGNRYVNTWGVFIVESPDGQWCNWSIQRVQYLNDRQMIALVFPSQHISDIWEEWVKIGKPMPYALVQGCEPIVPYIAGLPLLERNVNEAEYIGALYGKGIEVVKCETHDLRVPASSEVVIEGYFAITREGVEGPFGEFAGYIPNENSLQPILSITAISWQDDPIWPVVAEGKPVDEYHTCSGIGDAAAIQNVLLTANLPVSFVWVPLYSACHLMIVSINRHWRQTHPDLTSEQLTKKVGDVIHQTRMSIKLPRIVVLDDDVDPADTESLLWALATRIHPERKRYFYESCIFPWLNCYSEEERHNRKGKRVIIDALLPENHGAISSFDYAYPDDIKQRVLMHWETDFSHD
# B2: N388Q-C430P-L432F-L434W-S436N (protein)
# chain: B1 chain with M388Q, R394K, C430P
# B3: I283T-P284D-N287P-S322T-N388M-C430N-L432F-L434W-S436N-H444R-A463G-Y469D (protein)
# chain: B1 chain with I283T, P284D, N287P, S322T, R394K, C430N, H444R, A463G, Y469D
# B4: N388M-K394A-C430P-L432F-L434W-S436N (protein)
# chain: B1 chain with R394A, C430P
# B5: I283T-P284D-N287P-S322T-N388M-R422Q-C430N-L432F-L434W-S436N-A463G-Y469D (protein)
# chain: B1 chain with I283T, P284D, N287P, S322T, R394K, R422Q, C430N, A463G, Y469D
# B6: I283T-P284D-N287P-S322T-N388M-P393A-C430N-L432F-L434W-S436N-A463G-Y469D (protein)
# chain: B1 chain with I283T, P284D, N287P, S322T, P393A, R394K, C430N, A463G, Y469D
# B7: H141Y-N388M-K394R-C430P-L432F-L434W-S436N (protein)
# chain: B1 chain with H141Y, C430P
# B8: I283T-P284D-N287P-S322T-H384T-N388M-C430N-L432F-L434W-S436N-A463G-Y469D (protein)
# chain: B1 chain with I283T, P284D, N287P, S322T, H384T, R394K, C430N, A463G, Y469D
# B9: I283T-P284D-N285A-N287P-S322T-N388M-C430N-L432F-L434W-S436N-A463G-Y469D (protein)
# chain: B1 chain with I283T, P284D, N285A, N287P, S322T, R394K, C430N, A463G, Y469D
# B10: N388M-K394R-C430S-L432F-L434W-S436N (protein)
# chain: B1 chain with C430S
# B11: I283T-P284D-N287P-S322T-H384A-N388M-C430N-L432F-L434W-S436N-A463G-Y469D (protein)
# chain: B1 chain with I283T, P284D, N287P, S322T, H384A, R394K, C430N, A463G, Y469D
# B12: I283T-P284D-N287P-S322T-N388M-C430N-L432F-L434W-S436N-A463G-Y469T (protein)
# chain: B1 chain with I283T, P284D, N287P, S322T, R394K, C430N, A463G, Y469T
# B13: I283T-P284D-N287P-S322T-N388M-R422F-C430N-L432F-L434W-S436N-A463G-Y469D (protein)
# chain: B1 chain with I283T, P284D, N287P, S322T, R394K, R422F, C430N, A463G, Y469D
# B14: I283F-P284D-N287P-S322T-N388M-C430N-L432F-L434W-S436N-A463G-Y469D (protein)
# chain: B1 chain with I283F, P284D, N287P, S322T, R394K, C430N, A463G, Y469D
# B15: N388M-K394R-C430P-L432F-L434W-S436N (protein)
# chain: B1 chain with C430P
# B16: I283T-P284D-N287P-S322T-N388M-E421V-C430N-L432F-L434W-S436N-A463G-Y469D (protein)
# chain: B1 chain with I283T, P284D, N287P, S322T, R394K, E421V, C430N, A463G, Y469D
# B17: I283T-P284D-N287P-S322T-N388M-S429A-C430N-L432F-L434W-S436N-A463G-Y469D (protein)
# chain: B1 chain with I283T, P284D, N287P, S322T, R394K, S429A, C430N, A463G, Y469D
# B18: I283T-P284D-N287P-S322T-N388M-K423C-C430N-L432F-L434W-S436N-A463G-Y469D (protein)
# chain: B1 chain with I283T, P284D, N287P, S322T, R394K, K423C, C430N, A463G, Y469D
# B19: K394R-C430S-L432F-L434W-S436N (protein)
# chain: B1 chain with M388N, C430S
# B20: I283T-P284D-N285L-N287P-S322T-N388M-C430N-L432F-L434W-S436N-A463G-Y469D (protein)
# chain: B1 chain with I283T, P284D, N285L, N287P, S322T, R394K, C430N, A463G, Y469D
# B21: N388M-K394R-C430K-L432F-L434W-S436N (protein)
# chain: B1 chain with C430K
# B22: I283T-P284D-N287P-S322T-N388M-C430N-L432F-L434W-S436N-E459P-A463G-Y469D (protein)
# chain: B1 chain with I283T, P284D, N287P, S322T, R394K, C430N, E459P, A463G, Y469D
# B23: N388M-K394R-I395V-C430P-L432F-L434W-S436N (protein)
# chain: B1 chain with I395V, C430P
# B24: I283S-P284D-N287P-S322T-N388M-C430N-L432F-L434W-S436N-A463G-Y469D (protein)
# chain: B1 chain with I283S, P284D, N287P, S322T, R394K, C430N, A463G, Y469D
# B25: I283T-P284D-N285I-N287P-S322T-N388M-C430N-L432F-L434W-S436N-A463G-Y469D (protein)
# chain: B1 chain with I283T, P284D, N285I, N287P, S322T, R394K, C430N, A463G, Y469D
# B26: I283T-P284D-N287P-S322T-N388M-C430N-L432F-L434W-S436T-A463G-Y469D (protein)
# chain: B1 chain with I283T, P284D, N287P, S322T, R394K, C430N, N436T, A463G, Y469D
# B27: N388M-K394R-C430P-L432F-L434W-S436A (protein)
# chain: B1 chain with C430P, N436A
# B28: N388M-K394R-C430N-L432F-L434W-S436N (protein)
# chain: B1 chain with C430N
# B29: K394R-C430P-L432F-L434W-S436N (protein)
# chain: B1 chain with M388N, C430P
# B30: N388M-K394H-C430P-L432F-L434W-S436N (protein)
# chain: B1 chain with R394H, C430P
# B31: I283T-P284D-N287P-S288T-S322T-N388M-C430N-L432F-L434W-S436N-A463G-Y469D (protein)
# chain: B1 chain with I283T, P284D, N287P, S288T, S322T, R394K, C430N, A463G, Y469D
# B32: N388M-K394C-C430P-L432F-L434W-S436N (protein)
# chain: B1 chain with R394C, C430P
# B33: N388M-C430A-L432F-L434W-S436N (protein)
# chain: B1 chain with R394K, C430A
# B34: I283T-P284D-N287P-S322T-N388M-E421T-C430N-L432F-L434W-S436N-A463G-Y469D (protein)
# chain: B1 chain with I283T, P284D, N287P, S322T, R394K, E421T, C430N, A463G, Y469D
# B35: N388M-K394R-C430S-L432F-L434W-S436A (protein)
# chain: B1 chain with C430S, N436A
# B36: I283T-P284D-N287P-S322T-N388M-R422V-C430N-L432F-L434W-S436N-A463G-Y469D (protein)
# chain: B1 chain with I283T, P284D, N287P, S322T, R394K, R422V, C430N, A463G, Y469D
# B37: I283T-P284D-E286C-N287P-S322T-N388M-C430N-L432F-L434W-S436N-A463G-Y469D (protein)
# chain: B1 chain with I283T, P284D, E286C, N287P, S322T, R394K, C430N, A463G, Y469D
# System: 3-methylcrotonic acid
# Format: biochemical, Yersinia frederiksenii
# Parameters: key: “+” representing a low increase in activity; “++++” representing a high increase in activity
row,Molecule,Activity relative to WT
1,B1,+
2,B2,+
3,B3,++++
4,B4,+
5,B5,++++
6,B6,++++
7,B7,+
8,B8,++++
9,B9,++++
10,B10,+
11,B11,++++
12,B12,++++
13,B13,++++
14,B14,++++
15,B15,+
16,B16,++++
17,B17,++++
18,B18,++++
19,B19,+

row,Molecule,Activity relative to WT
1,B20,++++
2,B21,+
3,B22,++++
4,B23,+
5,B24,++++
6,B25,++++
7,B26,++++
8,B27,+
9,B28,+
10,B29,+
11,B30,+
12,B31,++++
13,B32,+
14,B33,+
15,B34,++++
16,B35,+
17,B36,++++
18,B37,++++
